Laboratory results from article PMC12669776.
pKd: −log10 of the molar value.

Columns and labels:
Experiment in all cases: EMSA
[1] = test system: PRC2-AEBP2L(TEV)-JARID2, uncleaved (Homo sapiens); conditions: no TEV; Hill 2.4 ± 0.2; CpG24 EMSA/FA: 50 mM Tris pH 7.5, 100 mM KCl (FA 25/50/100), 0.05% NP40, 0.1 mg/ml BSA, 2 mM 2-ME, 30 C; CpG46 FA: 20 mM Tris pH 8.0, 100 mM NaCl, 0.1 mM …
[2] = test system: PRC2-AEBP2L mt1A2A-JARID2 E37A;E38A;E39A;E40A;E41A;E42A;E43A;E44A;E45A;E46A;E47A;E48A;E95A;D96A;E97A;D98A;E99A;E100A;E101A;D102A;D103A;E104A;E105A;E106A;E107A;D108A;E109A (Homo sapiens), Q6ZN18-2+Q92833+Q15910-2+Q15022+O75530+Q09028; conditions: 2.5 mM Mg2+, 100 mM NaCl; CpG24 EMSA/FA: 50 mM Tris pH 7.5, 100 mM KCl (FA 25/50/100), 0.05% NP40, 0.1 mg/ml BSA, 2 mM 2-ME, 30 C; CpG46 FA: 20 mM Tris pH 8.0, 100 mM NaCl, 0.1 mM …
[3] = test system: PRC2-AEBP2L(TEV)-JARID2 cleaved with TEV (Homo sapiens); conditions: with TEV; Hill 2.7 ± 0.4; CpG24 EMSA/FA: 50 mM Tris pH 7.5, 100 mM KCl (FA 25/50/100), 0.05% NP40, 0.1 mg/ml BSA, 2 mM 2-ME, 30 C; CpG46 FA: 20 mM Tris pH 8.0, 100 mM NaCl, 0.1 mM …
[4] = test system: PRC2-AEBP2L-JARID2 wild-type (Homo sapiens), Q6ZN18-2+Q92833+Q15910-2+Q15022+O75530+Q09028; conditions: 2.5 mM Mg2+, 100 mM NaCl; CpG24 EMSA/FA: 50 mM Tris pH 7.5, 100 mM KCl (FA 25/50/100), 0.05% NP40, 0.1 mg/ml BSA, 2 mM 2-ME, 30 C; CpG46 FA: 20 mM Tris pH 8.0, 100 mM NaCl, 0.1 mM …

Substance: NCP182
- pKd [1]: 7.61
- pKd [2]: 7.81
- pKd [3]: 7.73
- pKd [4]: 7.48
